Values belong to the binder of their own block, whether it stands above or below them.
Key:
[1] = biological target: human CD137 on the cell surface (human, UniProt Q07011 24-255); assay: cell-based or functional assay
human Nectin-4 = biological target: T1, human Nectin-4 (human, UniProt Q96NY8 32-510); assay: immunofluorescence cell binding, CHO cells expressing human Nectin 4, 10 µg/ml per the text
T1 construct: Expressed on CHO cells; also called CHO-Nectin 4
T1 sequence: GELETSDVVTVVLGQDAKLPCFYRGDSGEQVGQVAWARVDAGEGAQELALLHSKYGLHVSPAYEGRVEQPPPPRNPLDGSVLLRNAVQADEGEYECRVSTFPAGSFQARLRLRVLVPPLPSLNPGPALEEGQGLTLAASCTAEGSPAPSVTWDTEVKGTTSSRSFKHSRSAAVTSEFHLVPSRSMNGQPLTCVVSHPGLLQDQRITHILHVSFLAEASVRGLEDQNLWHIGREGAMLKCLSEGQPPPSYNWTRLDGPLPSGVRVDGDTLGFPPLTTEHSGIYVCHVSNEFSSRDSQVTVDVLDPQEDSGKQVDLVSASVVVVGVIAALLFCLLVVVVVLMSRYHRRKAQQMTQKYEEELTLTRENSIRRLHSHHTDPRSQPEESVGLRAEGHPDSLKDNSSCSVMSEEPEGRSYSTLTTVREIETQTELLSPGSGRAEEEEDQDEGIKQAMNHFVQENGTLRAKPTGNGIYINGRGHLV
Protocol: Bispecific Nectin-4/CD137 binding proteins were generated, produced, and purified as described in Example 4. To examine the binding activity of the BsAbs 1925Ab1, 1925Ab2 and 1925Ab3 to Nectin 4, CHO cells expressing human Nectin 4 were used in an immunofluorescence binding assay. The cells were cultured in F12K media with 10% FBS. On the day of the experiment, the cells were collected, washed, and stained with the binding proteins at 4° C. for 2 hours, followed by fixing cells with paraformaldehyde for 15 minutes at room temperature. The disclosed antibodies 1925Ab1, 1925Ab2 and 1925Ab3 are bispecific antibodies that bind to both Nectin-4 and CD137. Monospecific antibody 1925Ab4 (parental murine antibody) only binds to Nectin-4 and is used as a control antibody. The fixed cells were then washed with PBS three times, followed by staining the cells at room temperature for 1 hour with Alexa Fluor® 488 Goat Anti-Human IgG antibody (Invitrogen, Cat #: A-11013) for detection. The binding signal was assessed by quantifying the fluorescence intensity using iQue Screener PLUS (Sartorius, MI).

Chain of human CD137 on the cell surface (Q07011 24-255): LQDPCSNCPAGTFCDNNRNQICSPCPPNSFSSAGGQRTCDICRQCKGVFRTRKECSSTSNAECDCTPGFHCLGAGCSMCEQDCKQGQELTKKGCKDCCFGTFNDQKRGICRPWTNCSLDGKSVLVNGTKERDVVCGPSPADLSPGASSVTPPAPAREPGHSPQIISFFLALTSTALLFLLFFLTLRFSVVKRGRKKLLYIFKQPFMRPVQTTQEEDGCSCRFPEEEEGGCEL

B3: 1901Ab2 (bispecific antibody, human IgG1, kappa, L234A L235A)
heavy: not shown
light: DIQLTQSPSFLSASVGDRVPITCRASQGISNFLAWYQQKPGKAPELLIHSASTLQSGVPSRFSGSGSGTEFTLTISNLQPQDFATYYCQQVNSYPLTFGGGTKVEIKRTVAAPSVFIFPPSDEQLKSGTASVVCLLNNFYPREAKVQWKVDNALQSGNSQESVTEQDSKDSTYSLSSTLTLSKADYEKHKVYACEVTHQGLSSPVTKSFNRGEC
EC50 of CD137 signaling (NFKB-luc, Jurkat reporter cells co-cultured with NUGC4 cells) [1]: 0.047 nM

B4: 1912Ab3 (bispecific antibody, human IgG1, kappa, L234A L235A)
heavy: not shown
light: DIQLTQSPSFLSASVGDRVTITCRASQGISSYLAWYQQKPGKAPKLLIYAASTLQSGVPSRFSGSGSGTEFTLAVSSLQPEDFATYYCQQLNSYPYTFGQGTKLEIKRTVAAPSVFIFPPSDEQLKSGTASVVCLLNNFYPREAKVQWKVDNALQSGNSQESVTEQDSKDSTYSLSSTLTLSKADYEKHKVYACEVTHQGLSSPVTKSFNRGEC
EC50 of CD137 signaling (NFKB-Luc, Jurkat reporter cells co-cultured with NEC8 WT cells) [1]: 0.2 nM

B5: 1901Ab3 (bispecific antibody, human IgG1, kappa, L234A L235A)
heavy: not shown
light: DIQLTQSPSFLSASVGDRVPITCRASQGISNFLAWYQQKPGKAPELLIHSASTLQSGVPSRFSGSGSGTEFTLTISNLQPQDFATYYCQQVNSYPLTFGGGTKVEIKRTVAAPSVFIFPPSDEQLKSGTASVVCLLNNFYPREAKVQWKVDNALQSGNSQESVTEQDSKDSTYSLSSTLTLSKADYEKHKVYACEVTHQGLSSPVTKSFNRGECGGGGSGGGGSGGGGSQVQLVESGGGVVQPGRSLRLSCAASGFTFSNYGMHWVRQAPGKCLEWVAIIWYDGINKYYADSVKGRFTISRDNSKNTLYLQMNSLKAEDTAVYYCARDQDYDILTGYYKEDYFDFWGQGTLVTVSSGGGGSGGGGSGGGGSGGGGSSYELTQPPSVSVSPGQTARITCSGDALPKKYAYWYQQKSGQAPVLVIYEDSKRPSGIPERFSGSSSGTMATLTISGAQVEDEADYYCYSTDSSGNRVFGCGTKLTVL
EC50 of CD137 signaling (NFKB-luc, Jurkat reporter cells co-cultured with NUGC4 cells) [1]: 0.1 nM

The remaining lines, values ahead:

EC50 of CD137 signaling (NFKB-Luc, Jurkat reporter cells co-cultured with NEC8 WT cells) [1]: 0.18 nM
B1: 1912Ab4 (bispecific antibody)
heavy: not shown
light: AIQLTQSPSSLSASVGDRVTITCRASQGINSWLAWYQQKPEKAPKSLIYAASSLQSGVPSRFSGSGSGTDFTLTISSLQPEDFATYYCQQYNFYPYTFGQGTKLEIIRTVAAPSVFIFPPSDEQLKSGTASVVCLLNNFYPREAKVQWKVDNALQSGNSQESVTEQDSKDSTYSLSSTLTLSKADYEKHKVYACEVTHQGLSSPVTKSFNRGEC

EC50 of CD137 signaling (NFKB-luc, Jurkat reporter cells with target cells) [1]: 0.08 nM
B2: 1925Ab2 (bispecific antibody, human IgG1, kappa)
heavy: not shown
light: DIQMTQSPSSLSASVGDRVTITCKASQSVNNDVAWYQQKPGKAPKLLIYYASNRDTGVPSRFSGSGSGTDFTLTISSLQPEDFATYYCQQDYSSPYTFGQGTKLEIKRTVAAPSVFIFPPSDEQLKSGTASVVCLLNNFYPREAKVQWKVDNALQSGNSQESVTEQDSKDSTYSLSSTLTLSKADYEKHKVYACEVTHQGLSSPVTKSFNRGECGGGGSGGGGSGGGGSQVQLVESGGGVVQPGRSLRLSCAASGFTFSNYGMHWVRQAPGKCLEWVAIIWYDGINKYYADSVKGRFTISRDNSKNTLYLQMNSLKAEDTAVYYCARDQDYDILTGYYKEDYFDFWGQGTLVTVSSGGGGSGGGGSGGGGSGGGGSSYELTQPPSVSVSPGQTARITCSGDALPKKYAYWYQQKSGQAPVLVIYEDSKRPSGIPERFSGSSSGTMATLTISGAQVEDEADYYCYSTDSSGNRVFGCGTKLTVL

binding result (human Nectin-4): binds
B6: 1925Ab4 (antibody, human IgG1, kappa, V domains shown)
VH: QVQLQQSGPELVKPGASVRISCKASGYTFTTYYIHWVKQRPGQGLEWIGWIYPGNVNTKYTENFKDKATLTADKSSSTAYMQLSSLTSEDSAVYFCARGLYYFDFWGQGTTLTVSS
VL: SIVMTQTPKFLLVSAGDRVTITCKASQSVNNDVAWYQQKPGQSPKLLIYYASNRDTGVPDRFTGSGFGTDFTFTISSVQAEDLAVYFCQQDYSSPYTFGGGTKLEIKR
notes: Parental murine anti-Nectin-4 antibody; also called parental murine monoclonal antibody; monospecific anti-Nectin-4 control antibody

EC50 of CD137 signaling (NFKB-luc, Jurkat reporter cells with target cells) [1]: 0.027 nM
B7: 1925Ab1 (bispecific antibody, human IgG1, kappa, L234A L235A)
heavy: not shown
light: DIQMTQSPSSLSASVGDRVTITCKASQSVNNDVAWYQQKPGKAPKLLIYYASNRDTGVPSRFSGSGSGTDFTLTISSLQPEDFATYYCQQDYSSPYTFGQGTKLEIKRTVAAPSVFIFPPSDEQLKSGTASVVCLLNNFYPREAKVQWKVDNALQSGNSQESVTEQDSKDSTYSLSSTLTLSKADYEKHKVYACEVTHQGLSSPVTKSFNRGEC

EC50 of CD137 signaling (NFKB-luc, Jurkat reporter cells with target cells) [1]: 0.049 nM
B8: 1925Ab3 (bispecific antibody, human IgG1, kappa, L234A L235A)
heavy: not shown
light: DIQMTQSPSSLSASVGDRVTITCKASQSVNNDVAWYQQKPGKAPKLLIYYASNRDTGVPSRFSGSGSGTDFTLTISSLQPEDFATYYCQQDYSSPYTFGQGTKLEIKRTVAAPSVFIFPPSDEQLKSGTASVVCLLNNFYPREAKVQWKVDNALQSGNSQESVTEQDSKDSTYSLSSTLTLSKADYEKHKVYACEVTHQGLSSPVTKSFNRGEC

— patent publication US20240383978A1 (NOVAROCK BIOTHERAPEUTICS, published 2024)
